Reference: article PMC4100929, “Pax6 Regulates the Expression of Dkk3 in Murine and Human Cell Lines, and Altered Responses to Wnt Signaling Are Shown in FlpIn-3T3 Cells Stably Expressing Either the Pax6 or the Pax6(5a) Isoform”

B1: mDkk3 5aCON MUT (dsDNA)
DNA 1: GGAGGAAGCTACCCTGTATCCGATTTTTCGAGAGGTGGAGGAG
DNA 2: CTCCTCCACCTCTCGAAAAATCGGATACAGGGTAGCTTCCTCC
B2: mDkk3 BSAP WT (dsDNA)
DNA 1: CATCTGGGGGCGGGCAGAGCAGCGGGGCGGGGCGGGACGGGCAAGAGGGG
DNA 2: CCCCTCTTGCCCGTCCCGCCCCGCCCCGCTGCTCTGCCCGCCCCCAGATG
B3: mDkk3 5aCON OPT (dsDNA)
DNA 1: GGAGGAAGCTATGCTCAGTGAGATGTTCATTGAGGTGGAGGAG
DNA 2: CTCCTCCACCTCAATGAACATCTCACTGAGCATAGCTTCCTCC

Columns and labels:
Conditions in all cases: protein: recombinant; label: 32P 5' end; blunt
[1] = molecular target: T1, GST-Pax6 paired domain (PD) (UniProt P63015 4-130); assay: EMSA; stronger than WT; EMSA: 2 ug protein, 20000 cpm 32P probe, 1 ug poly(dI-dC), 5% TBE polyacrylamide gel; buffer, salt, pH and temperature not given (as in ref. 35)
T1 sequence (P63015 4-130): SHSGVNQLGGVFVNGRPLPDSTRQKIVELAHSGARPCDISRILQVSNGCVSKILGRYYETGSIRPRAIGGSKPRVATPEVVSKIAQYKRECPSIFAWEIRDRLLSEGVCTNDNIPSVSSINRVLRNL

[2] = molecular target: GST-Pax6(5a) paired domain (PD5a) (UniProt P63015-2 4-144); assay: EMSA; EMSA: 2 ug protein, 20000 cpm 32P probe, 1 ug poly(dI-dC), 5% TBE polyacrylamide gel; buffer, salt, pH and temperature not given (as in ref. 35)
GST-Pax6(5a) paired domain (PD5a), sequence (P63015 other isoform, or with tags, fused parts or gaps): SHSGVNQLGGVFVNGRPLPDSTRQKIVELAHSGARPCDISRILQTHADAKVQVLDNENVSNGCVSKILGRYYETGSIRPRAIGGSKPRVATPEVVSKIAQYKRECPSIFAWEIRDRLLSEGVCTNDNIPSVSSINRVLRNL

[3] = molecular target: T1, GST-Pax6 paired domain (PD); assay: as above

Binder | binding result [1] | binding result [2] | binding result [3]
B1 | binds | – | –
B2 | – | no binding | binds
B3 | binds | – | –
